From patent US20240016923A1 come the findings set out here.

In assay [1] the target is secreted E2 ectodomain (sE2), HCV E2 residues 384-661 (Hepatitis C virus, isolate H77C) (UniProt P27958). Nature of the assay: SPR (Biacore T200); sE2 amine-coupled to a CM5 chip, CD81-LEL injected; 1:1 model. A general note: SPR reads the build-up and loss of mass on a sensor chip optically.
Assay [2] has the same target. Description: SPR (Biacore T200); sE2 amine-coupled to a CM5 chip, CD81-LEL injected; 1:1 model, Kd = koff/kon.

B1: CD81 large extracellular loop (CD81-LEL) (receptor, UniProt P60033 113-201, looked up, not shown: small tags and cut ends)
chain: FVNKDQIAKDVKQFYDQALQQAVVDDDANNAKAVVKTFHETLDCCGSSTLTALTTSVLKNNLCPSGSNIISNLFKEDCHQKIDDLFSGK
By koff is commonly meant the rate constant with which the complex falls apart. Low values mean a long-lived complex, high ones a short-lived complex. The term kon denotes the second-order rate constant of association. Low values mean slower complex formation, high ones faster complex formation. The term Kd denotes the equilibrium constant for the complex coming apart. Read a high Kd as weaker binding. For B1, in assay [1], the koff was determined as 0.00045 s⁻¹ and the kon worked out at 65000 M⁻¹ s⁻¹. Also, in assay [2], the Kd amounted to 7 nM.
